Test results reported in patent publication US20220002427A1, “BISPECIFIC ANTIBODY AGAINST BCMA AND CD3 AND AN IMMUNOLOGICAL DRUG FOR COMBINED USE IN TREATING MULTIPLE MYELOMA” (ENGMAB SARL, priority 2016, published 2022).
Where a chain is given by its changes, count along the chain named.

T1: huBCMA on HEK cells (Homo sapiens, UniProt Q02223)
T1 construct: expressed in transfected cells; host or cells: HEK cells (HEK-huBCMA)
T1 sequence (Q02223 1-184): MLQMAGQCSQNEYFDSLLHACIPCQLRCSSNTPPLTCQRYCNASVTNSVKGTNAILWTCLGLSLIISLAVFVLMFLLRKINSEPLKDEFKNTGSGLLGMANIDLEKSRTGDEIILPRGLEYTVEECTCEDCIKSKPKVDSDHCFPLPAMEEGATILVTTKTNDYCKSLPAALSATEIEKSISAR

T2: huBCMA Fc(kih) (Homo sapiens, UniProt Q02223)
T2 construct: The extracellular domains of human and cynomolgus BCMA comprised methionine 4 to asparagine 53, and methionine 4 to asparagine 52, respectively; made in house; host or cells: HEK EBNA cells
T2 sequence (Q02223 4-53): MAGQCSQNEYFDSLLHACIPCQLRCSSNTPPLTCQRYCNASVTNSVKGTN

B1: Mab 21: anti-BCMA antibody, VH SEQ ID NO:10, VL SEQ ID NO:12 (antibody, V domains shown)
VH: EVQLLESGGGLVQPGGSLRLSCAASGFTFSDNAMGWVRQAPGKGLEWVSAISGPGSSTYYADSVKGRFTISRDNSKNTLYLQMNSLRAEDTAVYYCAKVLGWFDYWGQGTLVTVSS
VL: EIVLTQSPGTLSLSPGERATLSCRASQSVSEYYLAWYQQKPGQAPRLLIEHASTRATGIPDRFSGSGSGTDFTLTISRLEPEDFAVYYCQQYGYPPDFTFGQGTKVEIK
modifications: Variable region VH; Variable region VL
B2: Mab 22: anti-BCMA antibody, VH SEQ ID NO:10, VL SEQ ID NO:13 (antibody, V domains shown)
VH: B1 VH
VL: B1 VL with E31S, E50S, H51G, S53G, T54S
modifications: Variable region VH; Variable region VL Mab22
B3: Mab 27: anti-BCMA antibody, VH SEQ ID NO:38, VL SEQ ID NO:12 (antibody, V domains shown)
VH: EVQLLESGGGLVQPGGSLRLSCAASGFTFSSAPMGWVRQAPGKGLEWVSAISYIGHTYYADSVKGRFTISRDNSKNTLYLQMNSLRAEDTAVYYCAKVLGWFDYWGQGTLVTVSS
VL: B1 VL
modifications: Mab27 VH; Variable region VL
B4: Mab 39: anti-BCMA antibody, VH SEQ ID NO:40, VL SEQ ID NO:12 (antibody, V domains shown)
VH: B1 VH with S30T, D31Q, G53P, P54T, S56F
VL: B1 VL
modifications: Mab39 VH; Variable region VL
B5: Mab 42: anti-BCMA antibody, VH SEQ ID NO:10, VL SEQ ID NO:14 (antibody, V domains shown)
VH: B1 VH
VL: B1 VL with E31D, Y32E, A35S, E50H, H51S, T75A
modifications: Variable region VH; Variable region VL Mab42
B6: Mab 33: anti-BCMA antibody, VH SEQ ID NO:39, VL SEQ ID NO:12 (antibody, V domains shown)
VH: B1 VH with S30Y, D31T, S52N, G53R, P54F, S56G
VL: B1 VL
modifications: Mab33 VH; Variable region VL

What follows are molecules tested against T1, huBCMA on HEK cells (assay: Binding of IgG variants on HEK-huBCMA cells (flow cytometry)). Details: not given.
From the text: FIGS. 18A-18B. FIG. 18A: Binding affinity of BCMA antibodies on HEK-huBCMA cells as measured by flow cytometry. The anti-BCMA antibodies were used as first antibody then a secondary PE-labeled anti-human Fc was used as detection antibody. […] FIG. 18B: Binding affinity of BCMA antibodies on HEK-huBCMA cells as measured by flow cytometry. The anti-BCMA antibodies were used as first antibody then a secondary PE-labeled anti-human Fc was used as detection antibody.
Due to their experience the inventors selected out of these 70 clones further 27 clones based on their binding properties to huBCMA, cynoBCMA, murineBCMA, and ratio, measured in different assays. Out of these clones 4VH and 9VL clones were selected, which results in […]. Binding affinity on HEK-huBCMA cells was measured (FIG. 18 and Table 2E). […] However Mab21, Mab 22, Mab27, Mab33, Mab39, and Mab42 were selected due to their overall properties, like affinity for huBCMA, cynoBCMA, binding as bispecific antibody to BCMA-positive multiple myeloma cell lines H929, L363 and RPMI-8226 by flow cytometry, killing potency of myeloma cells H929, L363 and RPMI-8226, of viable myeloma plasma cells from patient bone marrow aspirates, and pharmacokinetics (PK)) and pharmacodynamics (killing of BCMA positive cells) data in cynomolgus monkeys.
B1 was tested, and the “binding to huBCMA on HEK cells compared with Mab 83A10” value (from here on “binding … compared with Mab 83A10”) was “not significantly better”.
With B2 the “binding … compared with Mab 83A10” value was “not significantly better”.
With B3 the “binding … compared with Mab 83A10” value was “not significantly better”.
With B4 the “binding … compared with Mab 83A10” value was “not significantly better”.
For B5, the “binding … compared with Mab 83A10” value was “not significantly better”.

The molecules below were run against T2, huBCMA Fc(kih) (assay: Biacore T200 SPR, anti-BCMA antibodies to recombinant human BCMA Fc(kih)). Details: analyte huBCMA Fc(kih), 1:1 Langmuir, 25° C.
Type: binding
Method: (§1) Assessment of binding of anti-BCMA antibodies to recombinant BCMA by surface plasmon resonance (SPR) as follow. All SPR experiments were performed on a Biacore T200 at 25° C. with HBS-EP as running buffer (0.01 M HEPES pH 7.4, 0.15 M NaCl, 3 mM EDTA, 0.005% Surfactant P20, Biacore, Freiburg/Germany). The avidity of the interaction between anti-BCMA antibodies and recombinant BCMA Fc(kih) (human and cynomolgus) was determined. Biotinylated recombinant human and cynomolgus BCMA Fc(kih) were directly coupled on a SA chip following instructions (Biacore, Freiburg/Germany). The immobilization level ranged from 200 to 700 RU. The anti-BCMA antibodies were passed at a 2-fold concentration range (1.95 to 500 nM) with a flow of 30 μL/minutes through the flow cells over 120 seconds. The dissociation was monitored for 180 seconds. Bulk refractive index differences were corrected for by subtracting the response obtained on the reference flow cell. Here, the anti-BCMA antibodies were flown over an empty surface previously activated and deactivated as described in the standard amine coupling kit. Apparent kinetic constants were derived using the Biacore T200 Evaluation Software (vAA, Biacore AB, Uppsala/Sweden), to fit rate equations for 1:1 Langmuir binding by numerical integration, despite the bivalency of the interaction for comparison purposes. The affinity of the interaction between anti-BCMA antibodies and recombinant human BCMA Fc(kih) was also determined. Anti-human Fab antibody (GE Healthcare) was directly coupled on a CMS chip at pH 5.0 using the standard amine coupling kit (Biacore, Freiburg/Germany). The immobilization level was about 6500 RU. Anti-BCMA antibody was captured for 90 seconds at 25 nM. Recombinant human BCMA Fc(kih) was passed at a 4-fold concentration range (1.95 to 500 nM) with a flow of 30 μL/minutes through the flow cells over 120 seconds. The dissociation was monitored for 120 seconds. Bulk refractive index differences were corrected for by subtracting the response obtained on reference flow cell. Here, recombinant BCMA was flown over a surface with immobilized anti-human Fab antibody but on which HBS-EP has been injected rather than anti-BCMA antibody. Kinetic constants were derived using the Biacore T100 Evaluation Software (vAA, Biacore AB, Uppsala/Sweden), to fit rate equations for 1:1 Langmuir binding by numerical integration (Table 4).
In the case of B1, the “Koff” value is reported as 4.39e-05 s⁻¹ and the “Kon” value is reported as 851000 M⁻¹ s⁻¹.
B2 was tested, and the “Koff” value was 5.15e-05 s⁻¹ and the “Kon” value was 814000 M⁻¹ s⁻¹.
B3 was tested, and the “Koff” value was 5.93e-05 s⁻¹ and the “Kon” value was 359000 M⁻¹ s⁻¹.
In the case of B4, the “Koff” value is reported as 5.58e-05 s⁻¹ and the “Kon” value is reported as 361000 M⁻¹ s⁻¹.
For B5, the “Koff” value was 0.000298 s⁻¹ and the “Kon” value was 803000 M⁻¹ s⁻¹.
In the case of B6, the “Koff” value is reported as 3.55e-05 s⁻¹ and the “Kon” value is reported as 200000 M⁻¹ s⁻¹.

These molecules were tested on cynoBCMA Fc(kih) (assay: Biacore T200 SPR, anti-BCMA antibodies to recombinant cynomolgus BCMA Fc(kih); cyno/hu affinity gap). Details: analyte cynoBCMA Fc(kih), 1:1 Langmuir, 25° C.
Type: binding
Method: as §1, with “Here, recombinant BCMA was flown over a surface with immobilized anti-human Fab antibody but on which HBS-EP has been injected rather than anti-BCMA antibody.” left out
Based on the affinity values described in Example 2, the affinity of anti-BCMA antibodies to human BCMA vs. cynomolgus BCMA were compared and cyno/hu affinity ratio (gap) values were calculated (Table 5). Affinity cyno/hu gap was calculated as affinity of antibody to cynomolgus BCMA divided by affinity to human BCMA and means that BCMA antibody binds to human BCMA with x fold binding affinity than to cynomolgus BCMA, where x=cyno/hu gap value.
B1 was tested, and the “Koff” value was 0.000235 s⁻¹ and the “Kon” value was 491000 M⁻¹ s⁻¹.
B2 was tested, and the “Koff” value was 0.000442 s⁻¹ and the “Kon” value was 454000 M⁻¹ s⁻¹.
For B3, the “Koff” value was 0.000455 s⁻¹ and the “Kon” value was 216000 M⁻¹ s⁻¹.
With B4 the “Koff” value was 0.000467 s⁻¹ and the “Kon” value was 215000 M⁻¹ s⁻¹.
B5 was tested, and the “Koff” value was 0.000453 s⁻¹ and the “Kon” value was 707000 M⁻¹ s⁻¹.
For B6, the “Koff” value was 9.76e-05 s⁻¹ and the “Kon” value was 132000 M⁻¹ s⁻¹.
